Series [1] has as its system FH, hirudin linked at its amino-terminal with an oligopeptide recognizable and cleavable by blood coagulation factor Xa.
Series [2] deals with TH, hirudin linked at its amino-terminal with an oligopeptide recognizable and cleavable by thrombin.
Series [3] relates to T1, GVYAR-HV2 (GH), hirudin HV2 with GVYAR linked to its N-terminus.
T1 sequence: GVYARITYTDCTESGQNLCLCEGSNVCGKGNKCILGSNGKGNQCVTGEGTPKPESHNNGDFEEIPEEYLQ

For series [4], the system named is T2, EPR-HV2 (EH), hirudin HV2 with EPR linked to its N-terminus.
T2 sequence: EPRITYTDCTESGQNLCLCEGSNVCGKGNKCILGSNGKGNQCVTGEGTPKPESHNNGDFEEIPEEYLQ

The subject of series [5] is tail-cut mouse. Nature of the series: Bleeding time in hemorrhagic model of tail-cut mouse. In kind it is in vivo. To be noted: for Bleeding time: X ± SD, 15 animals; for influence on hemorrhagic indexes compared with HV2 (in words): statement on table 3 and 4. As for the experimental part: (2) The hemorrhagic side-effects of GH, EH, TH and FH in hemorrhagic model of tail-cut mouse were analyzed, and the results were listed in Table 4.

Series [6] has as its system rat carotid artery thrombosis model. Nature of the series: Time needed for thrombogenesis in rat carotid artery thrombosis model. In kind it is in vivo. The settings on record: for Time needed for thrombogenesis: rat carotid artery, X ± SD, 10 animals; for time needed for thrombogenesis (in words): rat carotid artery thrombosis model, statement on table 2. An excerpt: (§1) (1) Analyses of GH, EH, FH and TH antithrombotic and hemorrhagic side-effects in rat carotid artery thrombosis model, and the results were listed in table 2 and 3.

The test system is the same in series [7]. The series can be described thus: Plasma TT levels in rat carotid artery thrombosis model. The settings on record: NS group = 100%, X ± SD. In kind it is in vivo.
From the text: as §1

Series [8] has as its target FXIa (Homo sapiens, UniProt P03951). Nature of the series: Anticoagulation activity by fibrin-clot method before and after cleavage by FXIa. In kind it is biochemical. As for the experimental part:
(§2) EH, GH, FH and TH were cleaved respectively by thrombin, FXa and FXIa, then the activities of anticoagulation were assayed by fibrin-clot method.

The target in series [9] is thrombin (Homo sapiens, UniProt P00734). The series can be described thus: Anticoagulation activity by fibrin-clot method before and after cleavage by thrombin. In kind it is biochemical. The protocol: as §2
Series [10] deals with FXa (Homo sapiens, UniProt P00742). The series can be described thus: Anticoagulation activity by fibrin-clot method before and after cleavage by FXa. The series is classed as biochemical. As for the experimental part: as §2
Sequence of FXa (P00742 235-488 limits assumed): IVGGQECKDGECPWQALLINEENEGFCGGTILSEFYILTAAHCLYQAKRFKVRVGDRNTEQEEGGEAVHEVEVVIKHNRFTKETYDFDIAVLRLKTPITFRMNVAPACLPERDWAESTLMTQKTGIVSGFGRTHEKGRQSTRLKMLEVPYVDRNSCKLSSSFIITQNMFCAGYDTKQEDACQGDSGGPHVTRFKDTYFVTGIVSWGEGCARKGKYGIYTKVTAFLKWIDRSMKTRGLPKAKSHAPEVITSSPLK
Sequence of FXa (P00742 41-179 partner limits assumed): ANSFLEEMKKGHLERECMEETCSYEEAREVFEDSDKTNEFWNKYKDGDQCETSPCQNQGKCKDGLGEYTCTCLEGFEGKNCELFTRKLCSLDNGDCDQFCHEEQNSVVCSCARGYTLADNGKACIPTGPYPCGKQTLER

Sequence of FXIa (P03951 388-625 limits assumed): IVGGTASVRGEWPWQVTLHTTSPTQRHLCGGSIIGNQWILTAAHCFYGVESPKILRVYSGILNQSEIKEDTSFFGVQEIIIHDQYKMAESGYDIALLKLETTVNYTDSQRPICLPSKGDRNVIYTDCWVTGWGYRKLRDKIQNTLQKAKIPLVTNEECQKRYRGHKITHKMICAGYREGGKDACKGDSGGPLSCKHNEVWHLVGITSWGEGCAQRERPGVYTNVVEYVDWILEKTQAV
Sequence of FXIa (P03951 19-387 partner limits assumed): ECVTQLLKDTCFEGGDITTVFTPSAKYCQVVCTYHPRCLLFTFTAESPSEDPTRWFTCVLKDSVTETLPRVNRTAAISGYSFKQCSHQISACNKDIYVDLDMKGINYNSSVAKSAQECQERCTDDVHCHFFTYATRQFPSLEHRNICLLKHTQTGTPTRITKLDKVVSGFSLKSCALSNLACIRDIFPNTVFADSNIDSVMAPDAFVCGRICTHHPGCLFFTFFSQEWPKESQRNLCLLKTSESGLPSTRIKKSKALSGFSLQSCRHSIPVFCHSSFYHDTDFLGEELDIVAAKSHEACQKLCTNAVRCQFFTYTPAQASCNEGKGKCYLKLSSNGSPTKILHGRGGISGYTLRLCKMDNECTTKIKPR

In [1], blood coagulation factor XIa had an anticoagulation activity (fibrin-clot method) after 3 h of cleavage of 0, an anticoagulation activity (fibrin-clot method) after 6 h of cleavage of 0 and an anticoagulation activity (fibrin-clot method) at 0 h of cleavage of 0. In series [2], this molecule displayed an anticoagulation activity (fibrin-clot method) after 3 h of cleavage of 0, an anticoagulation activity (fibrin-clot method) after 6 h of cleavage of 64 and an anticoagulation activity (fibrin-clot method) at 0 h of cleavage of 0. Besides, in [3], the anticoagulation activity (fibrin-clot method) after 3 h of cleavage was 0; the anticoagulation activity (fibrin-clot method) after 6 h of cleavage is 0; the anticoagulation activity (fibrin-clot method) at 0 h of cleavage was determined as 0; the “recognition and cleavage, read by release of anticoagulation activity” value (“recognition and cleavage, read” for short) is “GH can be recognizable and cleavable by two blood coagulation factors of FXIa and FXa respectively”. In series [4], this molecule displayed an anticoagulation activity (fibrin-clot method) after 3 h of cleavage of 256, an anticoagulation activity (fibrin-clot method) after 6 h of cleavage of 512 and an anticoagulation activity (fibrin-clot method) at 0 h of cleavage of 0.

In the case of blood coagulation factor Xa, the anticoagulation activity (fibrin-clot method) after 3 h of cleavage in series [1] was 64; in [2], 32; in series [3], 64; in series [4], 64. In addition, the anticoagulation activity (fibrin-clot method) after 6 h of cleavage in series [1] stood at 128; in [2], 64; in [3], 128; in [4], 128. Besides, the anticoagulation activity (fibrin-clot method) at 0 h of cleavage in [1], in series [2], in series [3] and in series [4] was 0 throughout. Besides, the “recognition and cleavage, read” value in series [1] was “while FH only by FXa”; in [3], “GH can be recognizable and cleavable by two blood coagulation factors of FXIa and FXa respectively”; in series [4], “EH can be recognizable and cleavable by two blood coagulation factors of thrombin and FXa respectively”.

Regarding hirudin [HV2, reference compound], the Bleeding time in series [5] (tail-cut mouse, 1.5 mg/kg) is 1532.5 ± 420.74 s. Also, in [6] (2 mg/kg), the “Time needed for thrombogenesis” value is 1117.00 ± 243.95 s. The “% of TT changes” value in series [7] (2 mg/kg) was determined as 1005.62 ± 361.28 %.

In [1], thrombin showed an anticoagulation activity (fibrin-clot method) after 3 h of cleavage of 2, an anticoagulation activity (fibrin-clot method) after 6 h of cleavage of 8 and an anticoagulation activity (fibrin-clot method) at 0 h of cleavage of 0. For the same molecule, in series [2], the anticoagulation activity (fibrin-clot method) after 3 h of cleavage worked out at 0; the anticoagulation activity (fibrin-clot method) after 6 h of cleavage is 0; the anticoagulation activity (fibrin-clot method) at 0 h of cleavage turned out to be 0; the “recognition and cleavage, read” value is “TH only by thrombin”. In series [3], this molecule came in with an anticoagulation activity (fibrin-clot method) after 3 h of cleavage of 2, an anticoagulation activity (fibrin-clot method) after 6 h of cleavage of 8 and an anticoagulation activity (fibrin-clot method) at 0 h of cleavage of 0. Besides, in [4], the anticoagulation activity (fibrin-clot method) after 3 h of cleavage is 0; the anticoagulation activity (fibrin-clot method) after 6 h of cleavage stood at 0; the anticoagulation activity (fibrin-clot method) at 0 h of cleavage was determined as 0; the “recognition and cleavage, read” value was “EH can be recognizable and cleavable by two blood coagulation factors of thrombin and FXa respectively”.

B1: EH: hirudin (HV2) linked at its amino-terminal with the oligopeptide EPR recognizable and cleavable by both coagulation factors XIa and Xa (protein)
chain: EPRITYTDCTESGQNLCLCEGSNVCGKGNKCILGSNGKGNQCVTGEGTPKPESHNNGDFEEIPEEYLQ
modifications: ends and bridges not checked
notes: hirudin (HV2) linked at its amino-terminal with the oligopeptide EPR recognizable and cleavable by both coagulation factors XIa and Xa
As for B1, the “influence on hemorrhagic indexes compared with HV2 (in words)” value in series [5] was “less than that of HV2”. Also, the Bleeding time in [5] (tail-cut mouse, 1.5 mg/kg) is recorded as 203.89 ± 97.41 s; in series [5] (tail-cut mouse, 6 mg/kg), 338.77 ± 169.08 s. The anticoagulation activity is 0 in series [8] (0 h); 256 in series [8] (3 h); 512 in [8] (6 h); 0 in series [9] (0 h); 0 in [9] (3 h); 0 in [9] (6 h). Besides, the anticoagulation activity in [10] (0 h) was found to be 0; in series [10] (3 h), 64; in series [10] (6 h) it was 128. For the same molecule, in series [6], the “time needed for thrombogenesis (in words)” value is listed as “prolonged in a dose-dependent manner”. The “Time needed for thrombogenesis” value came out at 964.10 ± 179.68 s in series [6] (2 mg/kg) and 1083.90 ± 227.10 s in [6] (4 mg/kg). Besides, the “% of TT changes” value in [7] (2 mg/kg) is recorded as 108.41 ± 12.95%; in [7] (4 mg/kg), 121.81 ± 13.68 %.

B2: GH: hirudin (HV2) linked at its amino-terminal with the oligopeptide GVYAR recognizable and cleavable by both thrombin and coagulation factor Xa (protein)
chain: GVYARITYTDCTESGQNLCLCEGSNVCGKGNKCILGSNGKGNQCVTGEGTPKPESHNNGDFEEIPEEYLQ
modifications: ends and bridges not checked
notes: hirudin (HV2) linked at its amino-terminal with the oligopeptide GVYAR recognizable and cleavable by both thrombin and coagulation factor Xa
For the molecule B2, the “influence on hemorrhagic indexes compared with HV2 (in words)” value in [5] is recorded as “less than that of HV2”. Further, the Bleeding time came to 165.46 ± 142.42 s in [5] (tail-cut mouse, 1.5 mg/kg) and 304 ± 178.99 s in series [5] (tail-cut mouse, 6 mg/kg). Further, the “bleeding time compared with FH and TH (in words)” value in [5] (tail-cut mouse, statement) is “significantly shorter bleeding time than that of FH and TH group”. For the same molecule, the anticoagulation activity amounted to 0 in series [8] (0 h); 0 in series [8] (3 h); 0 in series [8] (6 h); 0 in series [9] (0 h); 2 in [9] (3 h); 8 in series [9] (6 h). Further, the results for the anticoagulation activity in [10] (0 h), in series [10] (3 h) and in [10] (6 h) were 0, 64 and 128, respectively. Also, the “time needed for thrombogenesis (in words)” value in [6] is reported as “prolonged in a dose-dependent manner”. The figures for the “Time needed for thrombogenesis” value in series [6] (2 mg/kg) and in series [6] (4 mg/kg) were 918.10 ± 204.16 s and 1006.7 ± 227.37 s, respectively. Besides, the “% of TT changes” value in series [7] (2 mg/kg) was found to be 104.35 ± 17.21%; in series [7] (4 mg/kg) it was 114.94 ± 19.82 %.

The values are drawn from patent publication US8101379B2, “Preparation of low bleeding anticoagulant fusion protein and its use” (Institute of Radiation Medicine Academy of Military Medical …, priority 2006, dated 2012).
